Reference: US20260242735A1 (UNIVERSIT T BASEL, published 2026)
Values belong to the binder of their own block, whether it stands above or below them.

Columns and labels:
[1] = target: human CD33 N53A (human, UniProt P20138 18-364); test: alanine scan, flow cytometry;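 also: HEK293-T cells transiently expressing single-residue alanine mutants of CD33 (alanine swapped to serine), antibody binding read by fluorescence in duplicate, background-subtracted, expressed relative to wild-type CD33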
[2] = target: human CD33 L78A (human, UniProt P20138 18-364); test: alanine scan, flow cytometry;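 also: HEK293-T cells transiently expressing single-residue alanine mutants of CD33 (alanine swapped to serine), antibody binding read by fluorescence in duplicate, background-subtracted, expressed relative to wild-type CD33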
Sequence of human CD33 L78A (P20138 18-364 L78A limits assumed): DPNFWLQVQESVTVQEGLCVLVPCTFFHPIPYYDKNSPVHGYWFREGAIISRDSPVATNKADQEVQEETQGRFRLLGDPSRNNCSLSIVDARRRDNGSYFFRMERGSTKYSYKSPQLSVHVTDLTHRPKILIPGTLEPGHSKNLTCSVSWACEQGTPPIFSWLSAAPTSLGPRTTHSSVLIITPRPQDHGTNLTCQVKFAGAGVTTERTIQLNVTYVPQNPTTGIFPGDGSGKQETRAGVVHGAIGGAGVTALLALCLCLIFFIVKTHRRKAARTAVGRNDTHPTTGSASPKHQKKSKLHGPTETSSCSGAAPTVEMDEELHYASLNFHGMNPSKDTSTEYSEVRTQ

[3] = target: human CD33 Q83A (human, UniProt P20138 18-364); test: alanine scan, flow cytometry;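 also: HEK293-T cells transiently expressing single-residue alanine mutants of CD33 (alanine swapped to serine), antibody binding read by fluorescence in duplicate, background-subtracted, expressed relative to wild-type CD33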
Sequence of human CD33 Q83A (P20138 18-364 Q83A limits assumed): as the sequence (P20138 18-364 L78A limits assumed) above, with A61L, Q66A counted along it

[4] = target: human CD33 L38A (human, UniProt P20138 18-364); test: alanine scan, flow cytometry;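 also: HEK293-T cells transiently expressing single-residue alanine mutants of CD33 (alanine swapped to serine), antibody binding read by fluorescence in duplicate, background-subtracted, expressed relative to wild-type CD33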
Sequence of human CD33 L38A (P20138 18-364 L38A limits assumed): as the sequence (P20138 18-364 L78A limits assumed) above, with L21A, A61L counted along it

[5] = target: human CD33 F90A (human, UniProt P20138 18-364); test: alanine scan, flow cytometry
Sequence of human CD33 F90A (P20138 18-364 F90A limits assumed): as the sequence (P20138 18-364 L78A limits assumed) above, with A61L, F73A counted along it

[6] = target: human CD33 V25A (human, UniProt P20138 18-364); test: alanine scan, flow cytometry
Sequence of human CD33 V25A (P20138 18-364 V25A limits assumed): as the sequence (P20138 18-364 L78A limits assumed) above, with V8A, A61L counted along it

[7] = target: human CD33 P46A (human, UniProt P20138 18-364); test: alanine scan, flow cytometry
Sequence of human CD33 P46A (P20138 18-364 P46A limits assumed): as the sequence (P20138 18-364 L78A limits assumed) above, with P29A, A61L counted along it

[8] = target: human CD33 R89A (human, UniProt P20138 18-364); test: alanine scan, flow cytometry
Sequence of human CD33 R89A (P20138 18-364 R89A limits assumed): as the sequence (P20138 18-364 L78A limits assumed) above, with A61L, R72A counted along it

[9] = target: human CD33 D18A (human, UniProt P20138 19-364); test: alanine scan, flow cytometry
Sequence of human CD33 D18A (P20138 18-364 D18A limits assumed): as the sequence (P20138 18-364 L78A limits assumed) above, with D1A, A61L counted along it

[10] = target: human CD33 P55A (human, UniProt P20138 18-364); test: alanine scan, flow cytometry
Sequence of human CD33 P55A (P20138 18-364 P55A limits assumed): as the sequence (P20138 18-364 L78A limits assumed) above, with P38A, A61L counted along it

[11] = target: human CD33 variant Y49C (human, UniProt P20138 18-364); test: flow cytometry, IgG on cells expressing the mutant
[12] = target: human CD33 variant P48S (human, UniProt P20138 18-364); test: flow cytometry, IgG on cells expressing the mutant
Sequence of human CD33 variant P48S (P20138 18-364 P48S limits assumed): as the sequence (P20138 18-364 L78A limits assumed) above, with P31S, A61L counted along it

[13] = target: human CD33 variant Y49R (human, UniProt P20138 18-364); test: flow cytometry, IgG on cells expressing the mutant
[14] = target: human CD33 variant I47P (human, UniProt P20138 18-364); test: flow cytometry, IgG on cells expressing the mutant
[15] = target: human CD33 variant Y50P (human, UniProt P20138 18-364); test: flow cytometry, IgG on cells expressing the mutant
[16] = target: human CD33 variant D51N (human, UniProt P20138 18-364); test: flow cytometry, IgG on cells expressing the mutant
[17] = target: human CD33 variant K52T (human, UniProt P20138 18-364); test: flow cytometry, IgG on cells expressing the mutant
[18] = target: human CD33 variant Y50V (human, UniProt P20138 18-364); test: flow cytometry, IgG on cells expressing the mutant
[19] = target: human CD33 variant K52H (human, UniProt P20138 18-364); test: flow cytometry, IgG on cells expressing the mutant
[20] = target: human CD33 variant P48V (human, UniProt P20138 18-364); test: flow cytometry, IgG on cells expressing the mutant
[21] = target: human CD33 variant Y49H (human, UniProt P20138 18-364); test: flow cytometry, IgG on cells expressing the mutant
[22] = target: human CD33 variant Y50I (human, UniProt P20138 18-364); test: flow cytometry, IgG on cells expressing the mutant
[23] = target: human CD33 variant M120I (human, UniProt P20138 18-364); test: flow cytometry, IgG on cells expressing the mutant
[24] = target: human CD33 variant I47N (human, UniProt P20138 18-364); test: flow cytometry, IgG on cells expressing the mutant
[25] = target: human CD33 variant P48Q (human, UniProt P20138 18-364); test: flow cytometry, IgG on cells expressing the mutant
[26] = target: human CD33 variant Y49I (human, UniProt P20138 18-364); test: flow cytometry, IgG on cells expressing the mutant
[27] = target: human CD33 variant R122S (human, UniProt P20138 18-364); test: flow cytometry, IgG on cells expressing the mutant
[28] = target: human CD33 variant K52F (human, UniProt P20138 18-364); test: flow cytometry, IgG on cells expressing the mutant
[29] = target: human CD33 variant R122T (human, UniProt P20138 18-364); test: flow cytometry, IgG on cells expressing the mutant
[30] = target: human CD33 variant M120L (human, UniProt P20138 18-364); test: flow cytometry, IgG on cells expressing the mutant
Sequence of human CD33 variant M120L (P20138 18-364 M120L limits assumed): as the sequence (P20138 18-364 L78A limits assumed) above, with A61L, M103L counted along it

[31] = target: human CD33 variant I47W (human, UniProt P20138 18-364); test: flow cytometry, IgG on cells expressing the mutant
[32] = target: human CD33 variant P48M (human, UniProt P20138 18-364); test: flow cytometry, IgG on cells expressing the mutant
Sequence of human CD33 variant P48M (P20138 18-364 P48M limits assumed): as the sequence (P20138 18-364 L78A limits assumed) above, with P31M, A61L counted along it

[33] = target: human CD33 variant Y50R (human, UniProt P20138 18-364); test: flow cytometry, IgG on cells expressing the mutant
[34] = target: human CD33 variant K52D (human, UniProt P20138 18-364); test: flow cytometry, IgG on cells expressing the mutant
[35] = target: human CD33 variant Y49Q (human, UniProt P20138 18-364); test: flow cytometry, IgG on cells expressing the mutant
[36] = target: human CD33 variant Y50S (human, UniProt P20138 18-364); test: flow cytometry, IgG on cells expressing the mutant
[37] = target: human CD33 variant Y49T (human, UniProt P20138 18-364); test: flow cytometry, IgG on cells expressing the mutant
Sequence of human CD33 variant Y49T (P20138 18-364 Y49T limits assumed): as the sequence (P20138 18-364 L78A limits assumed) above, with Y32T, A61L counted along it

Sequence of human CD33 N53A (P20138 18-364 N53A limits assumed): as the sequence (P20138 18-364 L78A limits assumed) above, with N36A, A61L counted along it

Mean % WT Binding [1]: 94.7 % WT
Mean % WT Binding [2]: 87.4 % WT
Mean % WT Binding [3]: 87.1 % WT
Mean % WT Binding [4]: 94.8 % WT
Mean % WT Binding [5]: 73.9 % WT
Mean % WT Binding [6]: 90.7 % WT
Mean % WT Binding [7]: 64.8 % WT
Mean % WT Binding [8]: 77.6 % WT
Mean % WT Binding [9]: 78.6 % WT
Mean % WT Binding [10]: 98.8 % WT
B1: Refmab #1 (antibody, V domains shown)
VH: EVQLVQSGAEVKKPGSSVKVSCKASGYTITDSNIHWVRQAPGQSLEWIGYIYPYNGGTDYNQKFKNRATLTVDNPTNTAYMELSSLRSEDTAFYYCVNGNPWLAYWGQGTLVTVSS
VL: DIQLTQSPSTLSASVGDRVTITCRASESLDNYGIRFLTWFQQKPGKAPKLLMYAASNQGSGVPSRFSGSGSGTEFTLTISSLQPDDFATYYCQQTKEVPWSFGQGTKVEVK
notes: Full-length format is human IgG1 (Absolute Antibody Ab00283-10.0); The alanine scan used IgG or Fab; also called hP67.6

Mean % WT Binding [11]: 67.2 % of WT
Mean % WT Binding [12]: 97.5 % of WT
Mean % WT Binding [13]: 87.1 % of WT
Mean % WT Binding [14]: 84.5 % of WT
Mean % WT Binding [15]: 98.1 % of WT
Mean % WT Binding [16]: 99 % of WT
Mean % WT Binding [17]: 102 % of WT
Mean % WT Binding [18]: 94.9 % of WT
Mean % WT Binding [19]: 94.2 % of WT
Mean % WT Binding [20]: 121 % of WT
Mean % WT Binding [21]: 89.1 % of WT
Mean % WT Binding [22]: 99.2 % of WT
Mean % WT Binding [23]: 96.6 % of WT
Mean % WT Binding [24]: 87.8 % of WT
Mean % WT Binding [25]: 120 % of WT
Mean % WT Binding [26]: 109 % of WT
Mean % WT Binding [27]: 111 % of WT
Mean % WT Binding [28]: 4.5 % of WT
Mean % WT Binding [29]: 113 % of WT
Mean % WT Binding [30]: 98.4 % of WT
Mean % WT Binding [31]: 111 % of WT
Mean % WT Binding [32]: 110 % of WT
Mean % WT Binding [33]: 94.1 % of WT
Mean % WT Binding [34]: 101 % of WT
Mean % WT Binding [35]: 105 % of WT
Mean % WT Binding [36]: 101 % of WT
Mean % WT Binding [37]: 108 % of WT
B2: Refmab #1 (antibody, human IgG1, V domains shown)
VH: EVQLVQSGAEVKKPGSSVKVSCKASGYTITDSNIHWVRQAPGQSLEWIGYIYPYNGGTDYNQKFKNRATLTVDNPTNTAYMELSSLRSEDTAFYYCVNGNPWLAYWGQGTLVTVSS
VL: DIQLTQSPSTLSASVGDRVTITCRASESLDNYGIRFLTWFQQKPGKAPKLLMYAASNQGSGVPSRFSGSGSGTEFTLTISSLQPDDFATYYCQQTKEVPWSFGQGTKVEVK
notes: Tested in IgG format; human IgG1 (Absolute Antibody hP67.6, Cat. No. Ab00283-10.0); also called hP67.6

Mean % WT Binding [1]: 96 % WT
Mean % WT Binding [2]: 108 % WT
Mean % WT Binding [3]: 107 % WT
Mean % WT Binding [4]: 112 % WT
Mean % WT Binding [5]: 104 % WT
Mean % WT Binding [6]: 87.1 % WT
Mean % WT Binding [7]: 104 % WT
Mean % WT Binding [8]: 98.7 % WT
Mean % WT Binding [9]: 119 % WT
Mean % WT Binding [10]: 120 % WT
B3: Refmab #2 (antibody, V domains shown)
VH: QVQLVQSGAEVKKPGSSVKVSCKASGGTFSDYAISWVRQAPGQGLEWMGRIIPILGVADYAQKFQGRVTITADKSTRTAYMELSSLRSEDTAVYYCARNWADAFDIWGQGTMVTVSS
VL: DIQLTQSPSSLSASVGDRVTITCRASQGISSVLAWYQQKPGKAPKLLIYDASSLESGVPSRFSGSGSGTDFTLTISSLQPEDFATYYCQQFDSSITFGQGTKLEIK
notes: Full-length format is human IgG1 Fc silent (PG-LALA); The alanine scan used IgG or Fab
